Source: article doi:10.1101/2023.04.26.538363 (bioRxiv, 2023)

Experiments:
[1] = biological target: the molecule itself; test: sucrose density gradient centrifugation
[2] = biological target: T1, Escherichia coli inclusion body-associated protein B (E. coli, UniProt P0C058 1-142); test: sucrose density gradient centrifugation
T1 sequence: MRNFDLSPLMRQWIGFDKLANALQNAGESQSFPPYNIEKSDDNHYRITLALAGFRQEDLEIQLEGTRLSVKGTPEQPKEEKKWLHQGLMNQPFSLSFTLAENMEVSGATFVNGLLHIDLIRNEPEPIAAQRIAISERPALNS

| Binder | binding result [1] | binding result [2] |
| --- | --- | --- |
| Escherichia coli inclusion body-associated protein A, wild type (natural protein) MRNFDLSPLYRSAIGFDRLFNHLENNQSQSNGGYPPYNVELVDENHYRIAIAVAGFAESELEITAQDNLLVVKGAHADEQKERTYLYQGIAERNFERKFQLAENIHVRGANLVNGLLYIDLERVIPEAKKPRRIEIN | binds | binds |
| Escherichia coli IbpA R93A mutant (natural protein) MRNFDLSPLYRSAIGFDRLFNHLENNQSQSNGGYPPYNVELVDENHYRIAIAVAGFAESELEITAQDNLLVVKGAHADEQKERTYLYQGIAEANFERKFQLAENIHVRGANLVNGLLYIDLERVIPEAKKPRRIEIN | binds | binds |
